# Test results taken from the RNAGym collection of RNA variant scans (doi:10.7554/elife.80360).
# B1: Hammerhead Ribozyme (parent)
# chain: ACCGGAUGUGCUUUCCGGUCUGAUGAGUCCGUGAGGACGAAACAG
# Variants of: B1
# Test: self-cleavage, relative activity (ratio to wild type); higher = more cleavage; co-transcriptional
row,Variant,self-cleavage
1,G8A G18C,0.574
2,G8A G18U,0.635
3,G8C A34C,0.83
4,G8C A34G,1.11
5,G8C A34U,0.988
6,G8U C11U,1.37
7,G8U C11G,1.21
8,G8U C11A,1.11
9,G8A C43G,0.344
10,G8A C43A,0.335
11,G8A C43U,0.381
12,G8A U28G,1.16
13,G8A U28A,0.738
14,G8A U28C,1.36
15,G8A C29G,0.667
16,G8A C29A,0.565
17,G8A C29U,0.966
18,G8A U19C,0.489
19,G8A U19G,0.448
20,G8A U19A,0.402
21,G8C C38G,0.596
22,G8C C38U,0.979
23,G8C C38A,0.8
24,G8C A42U,0.266

row,Variant,self-cleavage
1,G8C A42C,0.363
2,G8C A42G,0.311
3,G8U G27A,0.922
4,G8U G27C,0.794
5,G8U G27U,0.554
6,G8A G45A,0.704
7,G8A G45U,0.859
8,G8A G45C,0.512
9,G8C U13G,1.19
10,G8C U13C,1.2
11,G8C U13A,1.41
12,G8U C43A,0.254
13,G8U C43U,0.677
14,G8U C43G,0.333
15,G8C A41G,0.298
16,G8C A41U,0.388
17,G8C A41C,0.312
18,G8A A41U,0.323
19,G8A A41G,0.331
20,G8A A41C,0.353
21,G8C C16G,0.511
22,G8C C16A,0.446
23,G8C C16U,1.32
24,G8C U24G,1.05

row,Variant,self-cleavage
1,G8C U24C,0.769
2,G8C U24A,1.17
3,G8A C11G,1.18
4,G8A C11U,0.744
5,G8A C11A,1.28
6,G8U G31C,1.18
7,G8U G31U,1.08
8,G8U G31A,1.23
9,G8A A37C,1.06
10,G8A A37G,0.966
11,G8A A37U,0.731
12,G8U A42U,0.344
13,G8U A42G,0.367
14,G8U A42C,0.422
15,G8A A26G,0.371
16,G8A A26U,0.899
17,G8A A26C,0.577
18,G8A C20A,0.501
19,G8A C20U,0.594
20,G8A C20G,0.381
21,G8C U28A,1.22
22,G8C U28C,1.16
23,G8C U28G,1.05
24,G8A U24C,0.979

row,Variant,self-cleavage
1,G8A U24G,1.32
2,G8A U24A,1.11
3,G8A C30U,0.826
4,G8A C30A,0.929
5,G8A C30G,1.04
6,G8A U32G,1.09
7,G8A U32A,1.14
8,G8A U32C,1.02
9,G8C C15U,1.26
10,G8C C15A,0.837
11,G8C C15G,0.469
12,G8U U12A,0.842
13,G8U U12G,0.993
14,G8U U12C,1.35
15,G8C U19C,0.544
16,G8C U19G,0.428
17,G8C U19A,0.295
18,G8U A41G,0.328
19,G8U A41U,0.34
20,G8U A41C,0.324
21,G8U G35U,0.616
22,G8U G35C,0.842
23,G8U G35A,0.811
24,G8A U12G,1.25

row,Variant,self-cleavage
1,G8A U12C,0.897
2,G8A U12A,1.09
3,G8C G25A,0.284
4,G8C G25U,0.329
5,G8C G25C,0.242
6,G8C U12C,1.11
7,G8C U12A,1.01
8,G8C U12G,1.43
9,G8A A34U,0.89
10,G8A A34G,1.06
11,G8A A34C,0.936
12,G8U A37U,0.774
13,G8U A37C,1.09
14,G8U A37G,0.906
15,G8C U32G,1.23
16,G8C U32C,1.46
17,G8C U32A,1.28
18,G8A G17C,0.493
19,G8A G17A,0.539
20,G8A G17U,0.837
21,G8U A34G,0.927
22,G8U A34U,0.792
23,G8U A34C,0.925
24,G8A A42C,0.373

row,Variant,self-cleavage
1,G8A A42U,0.297
2,G8A A42G,0.306
3,G8C A37C,1.05
4,G8C A37U,0.842
5,G8C A37G,1.2
6,G8U G36U,0.495
7,G8U G36C,0.885
8,G8U G36A,0.658
9,G8C G10C,1.47
10,G8C G10A,1.47
11,G8C G10U,1.25
12,G8C G22C,0.339
13,G8C G22U,0.341
14,G8C G22A,0.347
15,G8C C20A,0.461
16,G8C C20G,0.288
17,G8C C20U,0.433
18,G8C A40U,0.286
19,G8C A40G,0.372
20,G8C A40C,0.428
21,G8A G33A,0.9
22,G8A G33C,0.949
23,G8A G33U,1.13
24,G8A G31U,1.14

row,Variant,self-cleavage
1,G8A G31A,0.849
2,G8A G31C,0.889
3,G8U A26U,0.935
4,G8U A26G,0.351
5,G8U A26C,0.596
6,G8C G31U,0.679
7,G8C G31A,1.06
8,G8C G31C,0.822
9,G8U G17U,0.964
10,G8U G17C,0.509
11,G8U G17A,0.652
12,G8C C29A,0.548
13,G8C C29U,0.758
14,G8C C29G,0.571
15,G8A G22U,0.384
16,G8A G22C,0.273
17,G8A G22A,0.403
18,G8A U14G,0.988
19,G8A U14C,0.975
20,G8A U14A,0.866
21,G8U U21A,0.782
22,G8U U21C,0.819
23,G8U U21G,0.571
